Assay results reported in patent US20030119072A1 (SIGNAL PHARMACEUTICALS, published 2003).
One block for each binder: values may come before it. Where no end group is shown, it is not given here. The star is where a group is joined. Biotin = O=C1N[C@H]2[C@H](CS[C@H]2CCCCC(=O)*)N1; Ahx = NCCCCCC(=O)O

Tests used:
[1] = target: T1, GST-WWP1.2; test: TRF (DELFIA) plate assay, GST-WW domain coated at 30 µg/mL, titrated with biotinylated peptide
T1 construct: Coated on polystyrene plates; also called second WW domain of WWP1; WWP1 WW domain 2; not shown: glutathione S-transferase (GST) fusion partner
T1 sequence (chain, as listed by the source): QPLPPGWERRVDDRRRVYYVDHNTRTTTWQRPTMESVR

[2] = target: T2, GST-WWP1.4; test: as above
T2 construct: Coated on polystyrene plates; also called WWP1 WW domain 4; not shown: glutathione S-transferase (GST) fusion partner

[3] = target: T3, GST-WWP1.3; test: as above
T3 construct: Coated on polystyrene plates; also called WWP1 WW domain 3; not shown: glutathione S-transferase (GST) fusion partner
T3 sequence (chain, as listed by the source): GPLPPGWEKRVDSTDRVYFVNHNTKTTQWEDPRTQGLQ

[4] = target: T4, GST-WWP1.1; test: as above
T4 construct: also called WWP1 WW domain 1; not shown: glutathione S-transferase (GST) fusion partner
T4 sequence (chain, as listed by the source): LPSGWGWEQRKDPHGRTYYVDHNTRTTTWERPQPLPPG

[5] = target: T4, GST-WWP1.1; test: TRF (DELFIA) plate assay, GST-WW domain coated, biotinylated peptide in solution
Procedure: (§1) Each domain was individually expressed as a GST fusion protein. A TRF binding assay was used to evaluate interactions of PY motif peptides with these domains or GST alone. WW domains were bound to a 96-well polystyrene assay plate (Costar) overnight at 4° C. in a 200 mM carbonate buffer (Pierce, Rockford, Ill.) at different concentrations (0, 1, 3, 10 μg/mL). Unbound WW domain was washed away with distilled, deionized water and the plates were blocked with 1% BSA/carbonate buffer for 2 hours at room temperature. The plates were then washed with Tris/Tween buffer: 50 mM Tris pH 7.5, 100 mM NaCl, 1 mM EDTA, 1% BSA, 1 mM DTT, 0.1% Tween20, protease inhibitor cocktail (Boehringer-Mannheim).
(§2) These biotinylated peptides were solvated in Tris/Tween buffer and added to the assay plates (30 μM). The plates were incubated at 4° C. for varying amounts of capture time. The plates were then washed with PBS/0.1% Triton X100 and probed for 1 hour at room temperature with 1 μg/mL Europium-labeled streptavidin (DELFIA; Wallac Oy, Turku, Finland) in DELFIA Assay Buffer/0.1% Triton X100. The unbound Europium-labeled streptavidin was washed with PBS/0.1% Triton X100. Europium was released for time-resolved fluorescence measurements with the DELFIA Enhancement Buffer. Measurements were made on either the DELFIA 1234 or Victor fluorometers.

[6] = target: T1, GST-WWP1.2; test: as above
Procedure: as §1, §2

[7] = target: T2, GST-WWP1.4; test: as above
Procedure: as §1, §2

[8] = target: T3, GST-WWP1.3; test: as above
Procedure: as §1, §2

[9] = target: T5, GST alone (UniProt P08515 1-218 = GST); test: TRF (DELFIA) plate assay, GST coated, biotinylated peptide in solution
T5 construct: Control coated on plates in the TRF assay
T5 sequence (P08515 whole entry): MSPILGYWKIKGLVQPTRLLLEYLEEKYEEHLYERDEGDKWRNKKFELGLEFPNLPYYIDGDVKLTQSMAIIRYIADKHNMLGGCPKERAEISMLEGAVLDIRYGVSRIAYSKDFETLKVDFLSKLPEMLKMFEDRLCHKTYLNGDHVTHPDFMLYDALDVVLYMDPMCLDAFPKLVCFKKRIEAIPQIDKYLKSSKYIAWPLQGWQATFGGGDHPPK
Procedure: as §1, §2

[10] = target: T1, GST-WWP1.2; test: TRF (DELFIA) plate assay, peptide titration of coated GST-WW domain, GST background subtracted; nonlinear least squares fit and Scatchard analysis
Procedure: FIGS. 8A-8B are graphs illustrating the binding of increasing concentrations of a Smad7 PY motif peptide to WWP1 WW domain peptides. In FIG. 8A, binding to four GST fusion peptides (GST-WWP1.1, GST-WWP1.2, GST-WWP1.3 and GST-WWP1.4) is shown, as well as binding to RSP5.2 WW domain. WW domain peptides were coated on polystyrene plates at the indicated receptor coating concentrations, and blocked with BSA. Biotinylated PY motif peptide was then added at the indicated concentrations. Binding was assessed using a time-resolved fluorescence assay and is shown as cps. FIG. 8B presents a Scatchard analysis of the Smad7 PY motif to WWP1.2 and WWP1.4, as indicated.
A detailed evaluation of the interactions of Smad 7 with the WWP1 WW domains and the second WW domain from RSP5 was undertaken. GST was used to correct for nonspecific background interactions. The peptide titration of the WW domains was evaluated by a nonlinear, least squares fit of the data and Scatchard analysis (FIGS. 8A-8B).

[11] = target: T1, GST-WWP1.2; test: TRF (DELFIA) plate assay, GST-WW domain coated at 0-10 µg/mL, biotinylated peptide 30 µM
Procedure: as §1, §2

[12] = target: T2, GST-WWP1.4; test: as above
Procedure: as §1, §2

[13] = target: T3, GST-WWP1.3; test: as above
Procedure: as §1, §2

binding result [1]: binds
binding result [2]: binds
binding result [3]: binds
B1: Smad5 PY motif peptide PADTPPPAYMPPDD (peptide)
peptide: PADTPPPAYMPPDD
modifications: not fully specified (N-terminus); also: biotin with C6 linker, end not given here
notes: also called Smad 5 peptide

binding result [4]: no binding
binding result [1]: no binding
binding result [2]: no binding
binding result [3]: no binding
B2: Smad2 PY motif peptide IPETPPPGYISEDG (peptide)
peptide: IPETPPPGYISEDG
modifications: not fully specified (N-terminus); also: biotin with C6 linker, end not given here
notes: also called Smad 2 peptide

binding result [4]: no binding
binding result [1]: no binding
binding result [2]: no binding
binding result [3]: no binding
B3: Smad1 PY motif peptide PADTPPPAYLPPED (peptide)
peptide: {Biotin-Ahx}-PADTPPPAYLPPED-NH2
SMILES: CC(C)C[C@H](NC(=O)[C@H](Cc1ccc(O)cc1)NC(=O)[C@H](C)NC(=O)[C@@H]1CCCN1C(=O)[C@@H]1CCCN1C(=O)[C@@H]1CCCN1C(=O)[C@@H](NC(=O)[C@H](CC(=O)O)NC(=O)[C@H](C)NC(=O)[C@@H]1CCCN1C(=O)CCCCCNC(=O)CCCC[C@@H]1SC[C@@H]2NC(=O)N[C@@H]21)[C@@H](C)O)C(=O)N1CCC[C@H]1C(=O)N1CCC[C@H]1C(=O)N[C@@H](CCC(=O)O)C(=O)N[C@@H](CC(=O)O)C(N)=O
notes: also called Smad 1 PY peptide; Biotin-Ahx-PADTPPPAYLPPED-CONH2

binding result [5]: no binding (tested: 30 µM peptide)
binding result [6]: no binding (tested: 30 µM peptide)
binding result [7]: no binding (tested: 30 µM peptide)
binding result [8]: no binding (tested: 30 µM peptide)
binding result [9]: no binding (tested: 30 µM peptide)
B4: Nedd PY motif peptide, Biotin-Ahx-IPGTPPPNYDSLRL-CONH2 (peptide)
peptide: {Biotin-Ahx}-IPGTPPPNYDSLRL-NH2
SMILES: CC[C@H](C)[C@H](NC(=O)CCCCCNC(=O)CCCC[C@@H]1SC[C@@H]2NC(=O)N[C@@H]21)C(=O)N1CCC[C@H]1C(=O)NCC(=O)N[C@H](C(=O)N1CCC[C@H]1C(=O)N1CCC[C@H]1C(=O)N1CCC[C@H]1C(=O)N[C@@H](CC(N)=O)C(=O)N[C@@H](Cc1ccc(O)cc1)C(=O)N[C@@H](CC(=O)O)C(=O)N[C@@H](CO)C(=O)N[C@@H](CC(C)C)C(=O)N[C@@H](CCCNC(=N)N)C(=O)N[C@@H](CC(C)C)C(N)=O)[C@@H](C)O

binding result [5]: no binding (tested: 30 µM peptide)
binding result [6]: no binding (tested: 30 µM peptide)
binding result [7]: no binding (tested: 30 µM peptide)
binding result [8]: no binding (tested: 30 µM peptide)
binding result [9]: no binding (tested: 30 µM peptide)
B5: Mutant Nedd PY motif peptide, Biotin-Ahx-IPGTPPPNHDSLRL-CONH2 (peptide)
peptide: {Biotin-Ahx}-IPGTPPPNHDSLRL-NH2
SMILES: CC[C@H](C)[C@H](NC(=O)CCCCCNC(=O)CCCC[C@@H]1SC[C@@H]2NC(=O)N[C@@H]21)C(=O)N1CCC[C@H]1C(=O)NCC(=O)N[C@H](C(=O)N1CCC[C@H]1C(=O)N1CCC[C@H]1C(=O)N1CCC[C@H]1C(=O)N[C@@H](CC(N)=O)C(=O)N[C@@H](Cc1c[nH]cn1)C(=O)N[C@@H](CC(=O)O)C(=O)N[C@@H](CO)C(=O)N[C@@H](CC(C)C)C(=O)N[C@@H](CCCNC(=N)N)C(=O)N[C@@H](CC(C)C)C(N)=O)[C@@H](C)O

Kd [10]: 2400 nM
B6: Smad7 PY motif peptide ELESPPPPYSRYPM (peptide)
peptide: ELESPPPPYSRYPM
modifications: not fully specified (N-terminus); also: biotin with C6 linker, end not given here
notes: also called Smad 7 peptide

binding result [1]: binds
binding result [2]: binds
binding result [3]: binds
B7: Smad6 PY motif peptide GPESPPPPYSRLSP (peptide)
peptide: GPESPPPPYSRLSP
modifications: not fully specified (N-terminus); also: biotin with C6 linker, end not given here
notes: also called Smad 6 peptide

binding result [4]: no binding
binding result [1]: no binding
binding result [2]: no binding
binding result [3]: no binding
B8: Smad3 PY motif peptide AGLTPPPGYLSEDG (peptide)
peptide: AGLTPPPGYLSEDG
modifications: not fully specified (N-terminus); also: biotin with C6 linker, end not given here
notes: also called Smad 3 peptide

binding result [9]: no binding (tested: 30 µM peptide)
binding result [11]: binds
binding result [12]: binds
binding result [13]: binds
B9: WBP1 PY motif peptide, Biotin-Ahx-HPGTPPPPYTVGPG-CONH2 (peptide)
peptide: {Biotin-Ahx}-HPGTPPPPYTVGPG-NH2
SMILES: CC(C)[C@H](NC(=O)[C@@H](NC(=O)[C@H](Cc1ccc(O)cc1)NC(=O)[C@@H]1CCCN1C(=O)[C@@H]1CCCN1C(=O)[C@@H]1CCCN1C(=O)[C@@H]1CCCN1C(=O)[C@@H](NC(=O)CNC(=O)[C@@H]1CCCN1C(=O)[C@H](Cc1c[nH]cn1)NC(=O)CCCCCNC(=O)CCCC[C@@H]1SC[C@@H]2NC(=O)N[C@@H]21)[C@@H](C)O)[C@@H](C)O)C(=O)NCC(=O)N1CCC[C@H]1C(=O)NCC(N)=O
notes: also called WBP1 peptide
